Experimental data taken from paper PMC7170535.

Legend:
[1] = molecular target: complement C3 (human)
[2] = molecular target: complement C3 (human); assay: SPR; ~2,000 RU C3 immobilised on a CM5 chip; rHC1 as analyte; HEPES-buffered saline pH 7.5, 0.05% Tween 20, 2 mM MnCl2
[3] = molecular target: complement C3 (human); assay: SPR; ~2,000 RU C3 immobilised on a CM5 chip by amide coupling; rHC1 or IαI as analyte; HEPES-buffered saline pH 7.5, 0.05% Tween 20, 2 mM Mg2+, 2 mM Mn2+; multicycle kinetics, 1:1 Langmuir

B1: recombinant inter-α-inhibitor heavy chain 1 (rHC1), wild type (natural protein)
chain: SKSSEKRQAVDTAVDGVFIRSLKVNCKVTSRFAHYVVTSQVVNTANEAREVAFDLEIPKTAFISDFAVTADGNAFIGDIKDKVTAWKQYRKAAISGENAGLVRASGRTMEQFTIHLTVNPQSKVTFQLTYEEVLKRNHMQYEIVIKVKPKQLVHHFEIDVDIFEPQGISKLDAQASFLPKELAAQTIKKSFSGKKGHVLFRPTVSQQQSCPTCSTSLLNGHFKVTYDVSRDKICDLLVANNHFAHFFAPQNLTNMNKNVVFVIDISGSMRGQKVKQTKEALLKILGDMQPGDYFDLVLFGTRVQSWKGSLVQASEANLQAAQDFVRGFSLDEATNLNGGLLRGIEILNQVQESLPELSNHASILIMLTDGDPTEGVTDRSQILKNVRNAIRGRFPLYNLGFGHNVDFNFLEVMSMENNGRAQRIYEDHDATQQLQGFYSQVAKPLLVDVDLQYPQDAVLALTQNHHKQYYEGSEIVVAGRIADNKQSSFKADVQAHGEGQEFSITCLVDEEEMKKLLRERGHMLENHVERLWAYLTIQELLAKRMKVDREERANLSSQALQMSLDYGFVTPLTSMSIRGMADQDGLKPTIDKPSEDSPPLEMLGPRRTFVLSALQPSPTHSSSNTQRLPDRVTGVDTD
Binder B1 has a fluid phase alternative pathway C3 convertase (C3bBb) assay, proteolytic release of C3a quantified by SDS-PAGE; rHC1 at 0 to 27 μM [1] of 980 nM, a Kd [2] of 473 nM and a Kd [3] of 364 nM.
